A word on the Kd: it is the constant that tells how readily two partners part at equilibrium. A high value points to a looser complex.

The target in one experiment is T1, human IL-15Rα (human, UniProt Q13261 31-205, limits assumed).
T1 construct: also called hIL-15Rα; IL-15 receptor alpha
Nature of the experiment: SPR, steady state. On the technique in general: SPR reads the build-up and loss of mass on a sensor chip optically.

Another experiment has as its target T2, human IL-2Rβ (human, UniProt P14784 27-240, limits assumed).
T2 construct: also called hIL-2Rβ; IL-2 receptor beta
T2 sequence (looked up): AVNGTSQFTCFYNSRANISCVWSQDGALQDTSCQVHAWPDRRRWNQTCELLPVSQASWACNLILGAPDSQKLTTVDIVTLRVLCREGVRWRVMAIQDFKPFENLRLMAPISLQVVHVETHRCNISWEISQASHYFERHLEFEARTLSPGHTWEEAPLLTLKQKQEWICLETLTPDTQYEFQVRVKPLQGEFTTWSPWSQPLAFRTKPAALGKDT
Nature of the experiment: SPR, steady state.

T1 sequence (Q13261 31-205 limits assumed): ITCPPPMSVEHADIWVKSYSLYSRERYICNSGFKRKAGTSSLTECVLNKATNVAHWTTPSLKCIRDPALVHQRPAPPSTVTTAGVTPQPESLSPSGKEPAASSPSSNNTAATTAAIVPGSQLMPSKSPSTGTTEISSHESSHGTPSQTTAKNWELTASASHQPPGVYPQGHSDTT

B1: hIL-15 V49R/E64H (ligand)
chain: NWVNVISDLKKIEDLIQSMHIDATLYTESDVHPSCKVTAMKCFLLELQRISLESGDASIHDTVHNLIILANNSLSSNGNVTESGCKECEELEEKNIKEFLQSFVHIVQMFINTGGGGSGHHHHHHHHGGGLNDIFEAQKIEWHE
With B1, the dissociation constant Kd with human IL-15Rα was 112 nM; in the experiment with human IL-2Rβ, over 1000 nM.

B2: hIL-15 V49R/H32I (ligand)
chain: NWVNVISDLKKIEDLIQSMHIDATLYTESDVIPSCKVTAMKCFLLELQRISLESGDASIHDTVENLIILANNSLSSNGNVTESGCKECEELEEKNIKEFLQSFVHIVQMFINTGGGGSGHHHHHHHHGGGLNDIFEAQKIEWHE
On to B2, for which the Kd in the experiment with human IL-15Rα worked out at 113 nM; with human IL-2Rβ, 110 nM.

B3: hIL-15 V49R/I68R (ligand)
chain: NWVNVISDLKKIEDLIQSMHIDATLYTESDVHPSCKVTAMKCFLLELQRISLESGDASIHDTVENLIRLANNSLSSNGNVTESGCKECEELEEKNIKEFLQSFVHIVQMFINTGGGGSGHHHHHHHHGGGLNDIFEAQKIEWHE
With B3, the results for the Kd with human IL-15Rα and in the experiment with human IL-2Rβ were 102 nM and over 500 nM, respectively.

B4: hIL-15 V49R/I68F (ligand)
chain: NWVNVISDLKKIEDLIQSMHIDATLYTESDVHPSCKVTAMKCFLLELQRISLESGDASIHDTVENLIFLANNSLSSNGNVTESGCKECEELEEKNIKEFLQSFVHIVQMFINTGGGGSGHHHHHHHHGGGLNDIFEAQKIEWHE
Turning to B4, the figures for the Kd with human IL-15Rα and with human IL-2Rβ were 78.5 nM and over 1000 nM, respectively.

B5: hIL-15 V49R/I68H (ligand)
chain: NWVNVISDLKKIEDLIQSMHIDATLYTESDVHPSCKVTAMKCFLLELQRISLESGDASIHDTVENLIHLANNSLSSNGNVTESGCKECEELEEKNIKEFLQSFVHIVQMFINTGGGGSGHHHHHHHHGGGLNDIFEAQKIEWHE
Consider B5, for which the results for the Kd with human IL-15Rα and with human IL-2Rβ were 87.6 nM and over 1000 nM, respectively.

B6: hIL-15 V49R/H32M (ligand)
chain: NWVNVISDLKKIEDLIQSMHIDATLYTESDVMPSCKVTAMKCFLLELQRISLESGDASIHDTVENLIILANNSLSSNGNVTESGCKECEELEEKNIKEFLQSFVHIVQMFINTGGGGSGHHHHHHHHGGGLNDIFEAQKIEWHE
As to B6, the Kd with human IL-15Rα is 134 nM; with human IL-2Rβ it was 161 nM.

B7: hIL-15 V49R/E64Q (ligand)
chain: NWVNVISDLKKIEDLIQSMHIDATLYTESDVHPSCKVTAMKCFLLELQRISLESGDASIHDTVQNLIILANNSLSSNGNVTESGCKECEELEEKNIKEFLQSFVHIVQMFINTGGGGSGHHHHHHHHGGGLNDIFEAQKIEWHE
As for B7, the dissociation constant Kd with human IL-15Rα is 127 nM; with human IL-2Rβ, over 500 nM.

B8: hIL-15 V49R/H32R (ligand)
chain: NWVNVISDLKKIEDLIQSMHIDATLYTESDVRPSCKVTAMKCFLLELQRISLESGDASIHDTVENLIILANNSLSSNGNVTESGCKECEELEEKNIKEFLQSFVHIVQMFINTGGGGSGHHHHHHHHGGGLNDIFEAQKIEWHE
For B8, the figures for the Kd in the experiment with human IL-15Rα and in the experiment with human IL-2Rβ were about 131 nM and 156 nM, respectively.

B9: hIL-15 V49R/H32L (ligand)
chain: NWVNVISDLKKIEDLIQSMHIDATLYTESDVLPSCKVTAMKCFLLELQRISLESGDASIHDTVENLIILANNSLSSNGNVTESGCKECEELEEKNIKEFLQSFVHIVQMFINTGGGGSGHHHHHHHHGGGLNDIFEAQKIEWHE
On to B9, for which the Kd with human IL-15Rα was 189 nM; in the experiment with human IL-2Rβ, 159 nM.

B10: hIL-15 V49R/H32S (ligand)
chain: NWVNVISDLKKIEDLIQSMHIDATLYTESDVSPSCKVTAMKCFLLELQRISLESGDASIHDTVENLIILANNSLSSNGNVTESGCKECEELEEKNIKEFLQSFVHIVQMFINTGGGGSGHHHHHHHHGGGLNDIFEAQKIEWHE
B10: the Kd with human IL-15Rα was 110 nM; in the experiment with human IL-2Rβ it was 176 nM.

B11: hIL-15 V49R/I68N (ligand)
chain: NWVNVISDLKKIEDLIQSMHIDATLYTESDVHPSCKVTAMKCFLLELQRISLESGDASIHDTVENLINLANNSLSSNGNVTESGCKECEELEEKNIKEFLQSFVHIVQMFINTGGGGSGHHHHHHHHGGGLNDIFEAQKIEWHE
Consider B11, for which the equilibrium dissociation constant (Kd) with human IL-15Rα is 85 nM; in the experiment with human IL-2Rβ it was over 1000 nM.

B12: hIL-15 V49R/H32V (ligand)
chain: NWVNVISDLKKIEDLIQSMHIDATLYTESDVVPSCKVTAMKCFLLELQRISLESGDASIHDTVENLIILANNSLSSNGNVTESGCKECEELEEKNIKEFLQSFVHIVQMFINTGGGGSGHHHHHHHHGGGLNDIFEAQKIEWHE
In the case of B12, the Kd with human IL-15Rα is 99.8 nM; in the experiment with human IL-2Rβ, 247 nM.

B13: hIL-15 V49R/H32D (ligand)
chain: NWVNVISDLKKIEDLIQSMHIDATLYTESDVDPSCKVTAMKCFLLELQRISLESGDASIHDTVENLIILANNSLSSNGNVTESGCKECEELEEKNIKEFLQSFVHIVQMFINTGGGGSGHHHHHHHHGGGLNDIFEAQKIEWHE
As for B13, the Kd was determined as 85.5 nM in the experiment with human IL-15Rα and 123 nM with human IL-2Rβ.

B14: hIL-15 V49R/I68L (ligand)
chain: NWVNVISDLKKIEDLIQSMHIDATLYTESDVHPSCKVTAMKCFLLELQRISLESGDASIHDTVENLILLANNSLSSNGNVTESGCKECEELEEKNIKEFLQSFVHIVQMFINTGGGGSGHHHHHHHHGGGLNDIFEAQKIEWHE
B14: the Kd was 73.6 nM in the experiment with human IL-15Rα and 245 nM with human IL-2Rβ.

B15: hIL-15 V49R/I68A (ligand)
chain: NWVNVISDLKKIEDLIQSMHIDATLYTESDVHPSCKVTAMKCFLLELQRISLESGDASIHDTVENLIALANNSLSSNGNVTESGCKECEELEEKNIKEFLQSFVHIVQMFINTGGGGSGHHHHHHHHGGGLNDIFEAQKIEWHE
Consider B15, for which the values for the dissociation constant (Kd) with human IL-15Rα and with human IL-2Rβ were 113 nM and over 500 nM, respectively.

B16: hIL-15 V49R/H32K (ligand)
chain: NWVNVISDLKKIEDLIQSMHIDATLYTESDVKPSCKVTAMKCFLLELQRISLESGDASIHDTVENLIILANNSLSSNGNVTESGCKECEELEEKNIKEFLQSFVHIVQMFINTGGGGSGHHHHHHHHGGGLNDIFEAQKIEWHE
In the case of B16, the figures for the Kd in the experiment with human IL-15Rα and with human IL-2Rβ were 92.8 nM and 149 nM, respectively.

B17: hIL-15 V49R/H32E (ligand)
chain: NWVNVISDLKKIEDLIQSMHIDATLYTESDVEPSCKVTAMKCFLLELQRISLESGDASIHDTVENLIILANNSLSSNGNVTESGCKECEELEEKNIKEFLQSFVHIVQMFINTGGGGSGHHHHHHHHGGGLNDIFEAQKIEWHE
With B17, the Kd in the experiment with human IL-15Rα worked out at 108 nM; in the experiment with human IL-2Rβ, 130 nM.

B18: hIL-15 V49R/H32Q (ligand)
chain: NWVNVISDLKKIEDLIQSMHIDATLYTESDVQPSCKVTAMKCFLLELQRISLESGDASIHDTVENLIILANNSLSSNGNVTESGCKECEELEEKNIKEFLQSFVHIVQMFINTGGGGSGHHHHHHHHGGGLNDIFEAQKIEWHE
In the case of B18, the Kd came out at 64 nM with human IL-15Rα and 147 nM in the experiment with human IL-2Rβ.

B19: hIL-15 V49R/H32G (ligand)
chain: NWVNVISDLKKIEDLIQSMHIDATLYTESDVGPSCKVTAMKCFLLELQRISLESGDASIHDTVENLIILANNSLSSNGNVTESGCKECEELEEKNIKEFLQSFVHIVQMFINTGGGGSGHHHHHHHHGGGLNDIFEAQKIEWHE
As for B19, the Kd was determined as 249 nM in the experiment with human IL-15Rα and 459 nM with human IL-2Rβ.

B20: hIL-15 V49R/H32P (ligand)
chain: NWVNVISDLKKIEDLIQSMHIDATLYTESDVPPSCKVTAMKCFLLELQRISLESGDASIHDTVENLIILANNSLSSNGNVTESGCKECEELEEKNIKEFLQSFVHIVQMFINTGGGGSGHHHHHHHHGGGLNDIFEAQKIEWHE
Consider B20, for which the dissociation constant Kd came to 162 nM in the experiment with human IL-15Rα and 146 nM in the experiment with human IL-2Rβ.

B21: hIL-15 V49R/H32N (ligand)
chain: NWVNVISDLKKIEDLIQSMHIDATLYTESDVNPSCKVTAMKCFLLELQRISLESGDASIHDTVENLIILANNSLSSNGNVTESGCKECEELEEKNIKEFLQSFVHIVQMFINTGGGGSGHHHHHHHHGGGLNDIFEAQKIEWHE
On to B21, for which the Kd was found to be 85.9 nM in the experiment with human IL-15Rα and 124 nM in the experiment with human IL-2Rβ.

B22: hIL-15 V49R/I68M (ligand)
chain: NWVNVISDLKKIEDLIQSMHIDATLYTESDVHPSCKVTAMKCFLLELQRISLESGDASIHDTVENLIMLANNSLSSNGNVTESGCKECEELEEKNIKEFLQSFVHIVQMFINTGGGGSGHHHHHHHHGGGLNDIFEAQKIEWHE
In the case of B22, the dissociation constant Kd in the experiment with human IL-15Rα is 96.2 nM; with human IL-2Rβ, over 1000 nM.

B23: hIL-15 V49R/E64T (ligand)
chain: NWVNVISDLKKIEDLIQSMHIDATLYTESDVHPSCKVTAMKCFLLELQRISLESGDASIHDTVTNLIILANNSLSSNGNVTESGCKECEELEEKNIKEFLQSFVHIVQMFINTGGGGSGHHHHHHHHGGGLNDIFEAQKIEWHE
Regarding B23, the Kd was 141 nM in the experiment with human IL-15Rα and over 500 nM in the experiment with human IL-2Rβ.

B24: hIL-15 V49R/E64N (ligand)
chain: NWVNVISDLKKIEDLIQSMHIDATLYTESDVHPSCKVTAMKCFLLELQRISLESGDASIHDTVNNLIILANNSLSSNGNVTESGCKECEELEEKNIKEFLQSFVHIVQMFINTGGGGSGHHHHHHHHGGGLNDIFEAQKIEWHE
B24: the Kd was 115 nM in the experiment with human IL-15Rα and over 500 nM with human IL-2Rβ.

B25: hIL-15 V49R/H32A (ligand)
chain: NWVNVISDLKKIEDLIQSMHIDATLYTESDVAPSCKVTAMKCFLLELQRISLESGDASIHDTVENLIILANNSLSSNGNVTESGCKECEELEEKNIKEFLQSFVHIVQMFINTGGGGSGHHHHHHHHGGGLNDIFEAQKIEWHE
In the case of B25, the figures for the equilibrium dissociation constant (Kd) with human IL-15Rα and with human IL-2Rβ were 152 nM and 218 nM, respectively.

For the origin of these results see patent publication US20210324028A1 (Pfizer, published 2021).
